Data as given in paper PMC10318465, “A heme pocket aromatic quadrupole modulates gas binding to cytochrome c′-β: Implications for NO sensors” (The Journal of Biological Chemistry, 2023).

What was measured:
[1] = biological target: His123 (UniProt position 143, GCFGCHAAQKE); assay: UV-vis; conditions: 1x MHTCP cocktail buffer (5x stock: 500 mM CAPS, 250 mM Mes, 250 mM Hepes, 250 mM Pipes, 250 mM TAPS), sodium dithionite, excess PROLI NONOate, Ferrous heme-nitrosyl Fe(II)NO complex, 5 uM protein, equilibrium between 5cNO (His 123 dissociated) and 6cNO (His 123 bound)
[2] = Literature kinetic parameters of six-coordinate Fe(II)CO complexes of selected heme proteins; type: binding; conditions: from literature koff(CO) values of Table 4
[3] = 6cNO; ref AxCP-α [9],[56]; L16A [9],[10]; Mb pig wt and V68T [57]; sGC [17],[58]; Ns H-NOX [16]; cited from earlier work
[4] = set-up: method as in earlier work; conditions: 6cCO, ref AxCP-α [9],[56], L16A [9],[10], Mb pig wt and V68T [57], H64V,V68T [25], sGC [17],[58], Ns H-NOX [16], cited from earlier work; for Kd: read-out: Kd(CO)

Molecule | pKa [1] | increase of koff(CO) relative to wt Mb [2] [fold] | kon(NO) [3] [M⁻¹ s⁻¹] | koff(CO) [4] [s⁻¹] | kon(CO) [4] [M⁻¹ s⁻¹] | Kd [4] [nM]
Cytochrome c'-beta (McCP-beta) (Methylococcus capsulatus (Bath)) | 7.17 ± 0.03 | – | – | – | – | –
V68T: V68T variant of pig myoglobin (Mb) (protein, UniProt P02189 2-154, looked up, variant V68T) Myoglobin: GLSDGEWQLVLNVWGKVEADVAGHGQEVLIRLFKGHPETLEKFDKFKHLKSEDEMKASEDLKKHGNTTLTALGGILKKKGHHEAELTPLAQSHATKHKIPVKYLEFISEAIIQVLQSKHPGDFGADAQGAMSKALELFRNDMAAKYKELGFQG | – | ~4 | 4.9e+06 | 0.079 | 610000 | 130
H64V, V68T: H64V/V68T Mb double variant (protein, UniProt P02189 2-154, looked up, variant H64V V68T) Myoglobin: GLSDGEWQLVLNVWGKVEADVAGHGQEVLIRLFKGHPETLEKFDKFKHLKSEDEMKASEDLKKVGNTTLTALGGILKKKGHHEAELTPLAQSHATKHKIPVKYLEFISEAIIQVLQSKHPGDFGADAQGAMSKALELFRNDMAAKYKELGFQG | – | ~3 | – | 0.063 | 2.7e+07 | 2.3
Mb pig (wt): wild-type pig myoglobin (protein, UniProt P02189 2-154, looked up) Myoglobin: GLSDGEWQLVLNVWGKVEADVAGHGQEVLIRLFKGHPETLEKFDKFKHLKSEDEMKASEDLKKHGNTVLTALGGILKKKGHHEAELTPLAQSHATKHKIPVKYLEFISEAIIQVLQSKHPGDFGADAQGAMSKALELFRNDMAAKYKELGFQG | – | – | 1.7e+07 | 0.019 | 780000 | 24
